# Measurements: US20130165379A1 (AMYLIN PHARMACEUTICALS, published 2013)
# B1: GLP-1 receptor (plasma membrane preparation of rat insulinoma cell line RINm5f) (receptor)
# chain: GPRPQGATVSLSETVQKWREYRHQCQRFLTEAPLLATGLFCNRTFDDYACWPDGPPGSFVNVSCPWYLPWASSVLQGHVYRFCTAEGIWLHKDNSSLPWRDLSECEESKQGERNSPEEQLLSLYIIYTVGYALSFSALVIASAILVSFRHLHCTRNYIHLNLFASFILRALSVFIKDAALKWMYSTAAQQHQWDGLLSYQDSLGCRLVFLLMQYCVAANYYWLLVEGVYLYTLLAFSVFSEQRIFKLYLSIGWGVPLLFVIPWGIVKYLYEDEGCWTRNSNMNYWLIIRLPILFAIGVNFLVFIRVICIVIAKLKANLMCKTDIKCRLAKSTLTLIPLLGTHEVIFAFVMDEHARGTLRFVKLFTELSFTSFQGFMVAVLYCFVNNEVQMEFRKSWERWRLERLNIQRDSSMKPLKCPTSSVSSGATVGSSVYAATCQNSCS
# notes: whole, on cells; The receptor stood in a plasma membrane preparation of the cells, not on intact cells; also called GLP-1 receptors; RINm5f membranes
# Molecular target: T1, Exendin-4 (Heloderma suspectum (Gila monster); …)
# T1 construct: also called synthetic exendin-4
# Assay: displacement of radiolabeled GLP-1 from RINm5f plasma membranes
binder,measurement,value
B1,binding result,binds
